# Experimental data reported in US20160137740A1 (AstraZeneca / MedImmune, published 2016).
# B1: 9B12 (antibody, mouse IgG1, V domains shown)
# VH: EVQLQESGPSLVKPSQTLSLTCSVTGDSFTSGYWNWIRKFPGNRLEYMGYISYNGITYHNPSLKSRISITRDTSKNHYYLQLNSVTTEDTATYFCARYRYDYDGGHAMDYWGQGTLVTVSS
# VL: DIQMTQTTSSLSASLGDRVTISCRASQDISNYLNWYQQKPDGTVKLLIYYTSKLHSGVPSRFSGSGSRTDYSLTITDLDQEDIATYFCQQGSALPWTFGQGTKVEIKR
# notes: mouse IgG1 kappa; also called murine mAb 9B12; mouse anti-human OX40 IgG1κ monoclonal antibody
# Assays:
# Cynomolgus monkey OX40 = target: T1, Cynomolgus monkey OX40 (cynomolgus monkey); assay: flow cytometry, equilibrium binding to activated primary cynomolgus CD4+ T cells; mean of 2 experiments (StdErr)
# T1 construct: also called cyno OX40
# Protocol: Cyno CD4⁺ T cell isolation was performed with a Miltenyi non-human primate kit according to manufacturer's instructions, then CD4⁺ T cells counted on a ViCell counter and suspended at 1×10⁶ per mL in complete medium as described above.
# Cyno CD4⁺ T cells (1×10⁶ per mL in complete medium) were incubated for 48 hours in a T75 cell culture flask with 2 μg/mL PHA-L and 20 IU/mL IL-2, to activate T cells and induce OX40 expression. Activated CD4⁺ T cells were removed from the flask and 100,000 cells were transferred to each well of a non-tissue culture treated 96-well round-bottom plate for binding assays and washed with 200 μL FACS buffer. Binding was performed with 10 μg/mL OX40mAb24 or 9B12 serially diluted 4-fold in FACS buffer for an 11-point data curve, or both R347 human IgG1 or mouse IgG1 clone MOPC-21 (negative controls) serially diluted 6-fold for a 3 point data curve. OX40mAb24, 9B12 or control protein was added to CD4⁺ T cells and incubated. […] Following secondary antibody incubation, cells were processed for flow cytometry as described in Section 2.3.
# Human OX40 = target: T2, Human OX40 (human, UniProt P43489 29-277); assay: cell-based or functional assay
# T2 sequence: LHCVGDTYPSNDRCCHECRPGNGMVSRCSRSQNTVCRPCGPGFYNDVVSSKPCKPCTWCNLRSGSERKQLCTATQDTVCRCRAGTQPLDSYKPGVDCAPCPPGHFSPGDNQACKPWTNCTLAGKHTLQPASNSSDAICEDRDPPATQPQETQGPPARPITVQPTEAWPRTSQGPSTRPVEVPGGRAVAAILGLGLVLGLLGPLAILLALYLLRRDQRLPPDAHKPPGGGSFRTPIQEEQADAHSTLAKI
# [1] = target: T3, Recombinant human TNFRSF9 (CD137) (human, UniProt Q07011 24-186, limits assumed); assay: ELISA, plate coated with a dilution series of the recombinant TNFRSF protein [panel B]
# T3 construct: Plate-adsorbed antigen of the ELISA
# Protocol: (§1) An eight point, two-fold dilution series of each recombinant human TNFRSF protein was prepared after dilution of stock proteins to 5 μg/mL in PBS. Subsequently, 50 μL of each antigen dilution was transferred in duplicate to wells of a Nunc 96-well MaxiSorp flat bottom plate, and incubated overnight at 4° C. to adsorb proteins to the plate. Afterwards, plates were washed three times with PBS in a BioTek® plate washer to remove unbound protein. Anti OX40 mAb29, 9B12, and control antibodies were diluted in PBS to a final concentration of 10 μg/mL, and 50 μL of mAb were added to each well and incubated at room temperature for one hour to bind mAb to plate-bound protein. Thereafter, wells were washed with PBS/Tween-20 0.1% (volume/volume) using a BioTek® plate washer. HRP conjugated goat anti-human or goat anti-mouse secondary antibodies at 10 μg/mL was added to each well and incubated at room temperature for 1 hour. After three washes in PBS/Tween-20 0.1%, 50 μL of TMB substrate was added to each well and incubated at room temperature for 5 minutes to develop the colorimetric product. Reactions were stopped by adding 50 μL of 0.5 molar H₂SO₄ to wells, and plates read immediately at 450 nm using an Envision C plate reader for detection of the colorimetric product.
# [2] = target: T4, Recombinant human TNFRSF14 (HVEM) (human, UniProt Q92956 39-202, limits assumed); assay: as above
# T4 construct: Plate-adsorbed antigen of the ELISA
# T4 sequence (looked up): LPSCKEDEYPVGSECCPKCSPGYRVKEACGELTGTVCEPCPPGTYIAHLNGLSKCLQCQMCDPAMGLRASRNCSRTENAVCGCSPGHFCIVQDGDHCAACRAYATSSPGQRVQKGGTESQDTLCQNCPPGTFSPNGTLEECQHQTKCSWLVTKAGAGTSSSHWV
# Protocol: as §1
# [3] = target: T5, Recombinant human TNFRSF16 (NGFR) (human, UniProt P08138 29-250); assay: as above
# T5 construct: Plate-adsorbed antigen of the ELISA
# T5 sequence (looked up): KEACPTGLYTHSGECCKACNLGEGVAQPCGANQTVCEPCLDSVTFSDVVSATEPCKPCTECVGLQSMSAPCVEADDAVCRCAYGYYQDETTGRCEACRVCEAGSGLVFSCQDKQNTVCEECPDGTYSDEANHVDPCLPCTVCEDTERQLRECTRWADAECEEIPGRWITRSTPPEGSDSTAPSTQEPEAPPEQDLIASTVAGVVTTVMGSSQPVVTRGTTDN
# Protocol: as §1
# [4] = target: T6, Recombinant human TNFRSF11A (RANK) (human, UniProt Q9Y6Q6 30-212); assay: as above
# T6 construct: Plate-adsorbed antigen of the ELISA; also called CD265
# T6 sequence (looked up): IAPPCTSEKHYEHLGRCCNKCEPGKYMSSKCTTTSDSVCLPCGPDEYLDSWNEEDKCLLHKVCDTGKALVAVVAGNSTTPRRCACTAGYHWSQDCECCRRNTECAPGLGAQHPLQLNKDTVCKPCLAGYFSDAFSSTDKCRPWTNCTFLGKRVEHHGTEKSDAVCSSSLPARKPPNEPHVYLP
# Protocol: as §1
# [5] = target: T7, Recombinant human TNFRSF21 (DR6) (human, UniProt O75509 42-349, limits assumed); assay: as above
# T7 construct: Plate-adsorbed antigen of the ELISA
# T7 sequence (looked up): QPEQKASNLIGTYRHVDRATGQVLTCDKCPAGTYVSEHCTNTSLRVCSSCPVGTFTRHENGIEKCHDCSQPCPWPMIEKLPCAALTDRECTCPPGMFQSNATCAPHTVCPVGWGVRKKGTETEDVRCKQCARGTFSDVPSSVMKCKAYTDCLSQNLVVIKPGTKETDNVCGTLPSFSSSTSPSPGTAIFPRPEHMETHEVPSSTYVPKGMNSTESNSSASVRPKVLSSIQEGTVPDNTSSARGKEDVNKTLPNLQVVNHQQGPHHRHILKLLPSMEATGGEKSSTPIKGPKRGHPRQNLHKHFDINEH
# Protocol: as §1
binder,measurement,setting,value
B1,Kd,Cynomolgus monkey OX40,1.09 nM
same,"EC50, NFκB-luciferase 2-cell assay, exp 1, Raji",Human OX40,9.28 nM
same,"EC50, NFκB-luciferase 2-cell assay, exp 2, CD32A-expressing HEK",Human OX40,0.338 nM
same,"EC50, NFκB-luciferase 2-cell assay, exp 3, CD32A-expressing HEK",Human OX40,0.225 nM
same,"EC50, NFκB-luciferase 2-cell assay, exp 4, Raji",Human OX40,5.04 nM
same,"EC50, NFκB-luciferase 2-cell assay, exp 5, CD32B-expressing HEK",Human OX40,0.726 nM
same,"EC50, NFκB-luciferase 2-cell assay, exp 6, Raji",Human OX40,2.7 nM
same,"EC50, NFκB-luciferase 2-cell assay, exp 7, CD32B-expressing HEK",Human OX40,1.77 nM
same,"EC50, NFκB-luciferase 2-cell assay, exp 8, CD32B-expressing HEK",Human OX40,1.34 nM
same,"EC50, NFκB-luciferase 2-cell assay, exp 9, Raji",Human OX40,3.07 nM
same,"EC50, NFκB-luciferase 2-cell assay, exp 10, Raji",Human OX40,3.33 nM
same,"EC50, NFκB-luciferase 2-cell assay, exp 11, CD32B-expressing HEK",Human OX40,2.36 nM
same,"EC50, NFκB-luciferase 2-cell assay, exp 12, CD45+ cells, NSCLC",Human OX40,0.223 nM
same,"EC50, NFκB-luciferase 2-cell assay, exp 15, CD45+ cells, RCC",Human OX40,2.42 nM
same,binding result,[1],no binding
same,binding result,[2],no binding
same,binding result,[3],no binding
same,binding result,[4],no binding
same,binding result,[5],no binding
